This data set is described as follows: soluble on expression in E. coli; label from the status in PepcDB or PDB records.
Regarding “MAHHHHHHMEHVNANEKNGYLASEKNELTKNKVEEHTYDYDYVVIGGGPGGMASAKEAAAHGARVLLFDYVKPSSQGTKWGIGGTCVNVGCVPKKLMHYAGHMGSIFKLDSKAYGWKFDNLKHDWKKLVTTVQSHIRSLNFSYMTGLRSSKVKYINGLAKLKDKNTVSYYLKGDLSKEETVTGKYILIATGCRPHIPDDVEGAKELSITSDDIFSLKKDPGKTLVVGASYVALECSGFLNSLGYDVTVAVRSIVLRGFDQQCAVKVKLYMEEQGVMFKNGILPKKLTKMDDKILVEFSDKTSELYDTVLYAIGRKGDIDGLNLESLNMNVNKSNNKIIADHLSCTNIPSIFAVGDVAENVPELAPVAIKAGEILARRLFKDSDEIMDYSYIPTSIYTPIEYGACGYSEEKAYELYGKSNVEVFLQEFNNLEISAVHRQKHIRAQKDEYDLDVSSTCLAKLVCLKNEDNRVIGFHYVGPNAGEVTQGMALALRLKVKKKDFDNCIGIHPTDAESFMNLFVTISSGLSYAAKG”, the “soluble on expression in E. coli” value is given as “not soluble”.
Regarding “MAHHHHHHMELSKYAGLSSERLDCLRNLDIRKRSIYKGSTFSYGNNIYDILHNYSDKQKENKSDGVSVAHDYKDFQRNIKFAGLESEIKNDINIRNRRIKNDMNYRNDNLKDILQNNMNEQNINNSKYFLSDKGYVLTPKRCLARHVDDSEINKYFSTKYAVTDSSTGRTEIMVERKPGCSNIIVQNFSEFDAYGTYKKKDERINRRDSFVHTKMGIVPRDGSCIDNNKCKAQATFTHIHRRDNIAPDNYWLCPTIESDKKNKTKR”, the “soluble on expression in E. coli” value is reported as “not soluble”.
Consider “MAHHHHHHMEQQGDSEAKEHGELTRNGITDNAYDNSVGAFNRTILDRYAHWMTQLDQGACGLRIWKAEELWKRYERVIRVGRGSFGSVFIVYDTERKAYLTVKCMELLGKPGPALRSLSQPTLREVILLSQIDHPNVVRLIDYYLTSDGMLHMCMPIVSHDLVSLIRIWKMRGPRGESSLGRMPLPTVKCVFRQLLRGLEYLHRRNIIHRDLKPSNVMLDDNGVVKIVDFGWARFVPRRWQGRLTGPPCVVTYRPPEILLGGQCSFKYDSSIDIWSAGCILYEMLTGGKAFSNARNEQQALAAITDMLGSPSSRSEVYYGAAGGSRLRPSKRQPRNFEERCRMVNMSNESIDFLGEMLQLEPNSRKSASQLLGHSWFSTSPLPCEPEEVSLPGSNTYRLLERKRTR”, for which the “soluble on expression in E. coli” value was “not soluble”.
Consider “MAHHHHHHMESINRNNNINKNEIDNKINNNNNMDVPIEGNEKSQEGDIIGQFGVGFYSSFVVSNKVEVFTRSYDNNSSKGYHWVSYGNGTFTLKEVDNIPKGTKIICHLKDSCKEFSNIQNVQKIVEKFSSFINFPVYVLKKKKILQT”, for which the “soluble on expression in E. coli” value is listed as “soluble”.
Then “MAHHHHHHMESINRNNNINKNEIDNKINNNNNMDVPIEGNEKSQEGDIIGQFGVGFYSSFVVSNKVEVFTRSYDNNSSKGYHWVSYGNGTFTLKEVDNIPKGTKIICHLKDSCKEFSNIQNVQKIVEKFSSFINFPVYVLKKKKILQTRKDIEQNELNDHTQQNELNHHNDQNDHTQQNELNHHNDQNDHTQQNELNHHNDQNDHTQQNELNHHVEHHKNVVENKNDEYEKNMDNRTSDNIKPESLSKQNDYENMNQCNNEETVLNRTKELNEEHIVEEILVNKQKPLWCKDNVTEEEHRHFFHFLNKNKSYNEDNKSYLYNMLYKTDAPLSIKSVFYIPEEAPSRLFQQSNDIEISLYCKKVLVKKNADNIIPKWLYFVKGVIDCEDMPLNISRENMQDSSLINKLSRVVVSKILKTLEREADINEEKYLKFYKNYNYNLKEGVLEDSNKNHYKNSLMNLLRFYSINQNKFISLKQYVNNFRNNQKNIYYFSANDKNVALNSPYMEPFKKQNIDVLLLLEEIDEFVLMNLQTYKDAKFVSIDTSQNEDFDEAVLNTNKNDNEKKQSIFFNDEQKKELQAYFKQVLGSKCSDVKFSERLTTSPAVVTGFLSPTLRKVMKATMKNSDFNDNTNNSNNMNMFQNLPATLELNPSHTIVTSIYHLKNTNQEVAKLLVQQLYDNACIAAGILEDPRSLLSKLNELLLLTARYAYHYEKKDIQENTKDQPIDVKDNTMAIDNIVNTKENNTNDDSVMKEAQSSNL”, with “not soluble”; and “MAHHHHHHMESNNHTTDLPSHAPGVEAAPIAAATPPLTGLAEGAVVTEGASHPKMAAAEPSEATATESPPSPHSTGEAKTQNALAALMSVLDNDEAARRGGTSLRSLQKMCMRVPQLSTELTRPQRFQLYCLLLLEDGDDPAVPGGAAGQEDWTTYTKQALETHVHMAKQAAALFPPPSTSPPTNSPASSTAWAPMRPFTSIRQ”, with “soluble”; and “MAHHHHHHMFLAATLDGVRSILSRIDPRQLHLYEIIREGSPCHLYLDVERESNHTALQHVIAVDDDSTSSSVEEADSLVQVEEDVGGTRRIVFQCCQSRYQELRRLAVRDPTDVCGLDCRIEPDNRNTCDVLLSALNSFVRDRHPSWVPPGLQAEGPGSVFADAWVLESVPLSGAATKFSQHYILKLHGRMFESTNSVKAFVRDFVAHVRERAAHDSQLHGALFFHKPPAWYPVFRELPLDYPRTTFPYLPRRCVIDEAVYSKNRMMRCVGSCKLGKQSVLLPYRHYVAGSCVEYFSNSANAASVSLDVFLSTLIAHRFAKDVAPVSLIKLTEEIEAPKNTRACALPASVSEGTAPATLHTVSLDVDIALLTSSLQRAYSQVANRACTVAQPHSLHGRFLSFSVRGTRYCQHIGREHKSNNVYLVVDTERMTFVQKCFDPDCASYRSPPRLLGGTP”, with “not soluble”.
Then “MAHHHHHHMFNHDIIKEKDNYKQKIRTLYRNEKEAIKPCNHYDMKEEEKKKSGKIKRSIKLFGTPAVHGLSSHINNNSGTQLYYNFHNVLKRDKEKIQDDNLNYTLERDAGEDNTMQSIHESDKTETQECGKHYLYNKFDIYKSYLSYKKDLIRNEYDQDYKGITTSLLKGKDTHDDNKDNKDNDDNDDNDDNNDHNDHYDITRDDPCDDMCDDMCEDMCDDMCDDMCDDPCDDMCDDPCDDMCDDPCDDMCDDPCDDPYDHPYEEEKYSTYCDKGYLRNFLKNAIIRPNLQTFVGRKIISFLNEKERDIFSLTCKILFFEVYSVSNLKTLYKYQFISNEKRSFIWKAILLEDNTYISEEDYKELRNRKCLYDKAIEKDINRTFPKHPFFINKNMNMQDKLLDILKVCSLYFERIGYCQGMNYIAGILLLVFRKNIDTIRCFISMLKNYNIKGMFSYNFPQLKKIIYQLNLLIKAYIPKLFYYFKRKKIKIDFFCVNWFLTLFSQDLSFENTLKLWDLFFLFGMKILIKLTLILLYYHEDNIIHLSYDEALTYLKAITKTPFIDYLFQDDHFFTHLKKFKITNSMLTQIIMLKKSRQKINLLVKENNGKLRCSIQIKQNNKHTFTSKIKEGFRNLFKLNENYVDYINYFYQKGDGEENNGNQNNGEEYNGKEYNGNQNNGNQNNGKQNNGNQNNGKQNNGNQNNVKQNNGEDTNKNNNNDDINNNICHNNYSSTNFYKNFFQHFNCGNIFNNPNYSNEIVLTNTTCLSVHFNSNVLCNSQNIKNKNTIHSLENIKEEHDHTKNPSNFFLETNTYYDLNLTKSVDGNN”, with “soluble”; and “MAHHHHHHMFVRSFCFLRKYGSKSKTPDLKTSFTKTTNFRKAEKISITTTDGEIVKGRGKIRRRTHSALKEAIGAMEHPAIWLWYPWRMNPEPPTPHMPQRRALKNVHGAVFNDLTPVQKKRQEQMLYGVNIPETRQMKFEEQHPLLAGALRKLEGQPKGFPFWYRKYPTRRHAYEYRFSIPVEMLDGYNDDVKKALSKGMMSIQEKQFAQEAMYMERYAEHDFDTTSPAVLAVKRALKCRVLRNHLLTNPHNNIIKTVLANTERKLNHALRRLRKVDFKKYWEIIRDHDVQDILQPPNLVTYRQGSYWKYDWNAGLAISTNLADVMDPRGLNGCVETGRSRSEVARDLGLSYTRPLHENEKKQLSHQAVYYERLAKFKMEQPEAARAMERERFVRKFSGMFVKMDIRSGAPDFPSTYRRLLGTKVVRWASKRHGPN”, with “not soluble”; and “MAHHHHHHMGAKILTKIQREKLVEWENCVSVIEAAILKHKYKQKVNKNIPSLLRVQAHIRKKMV”, with “not soluble”.
As for “MAHHHHHHMGDNIEKRYSLALYNVGKKNKKINEITSDILFIKNNFLKDKSFLNFLHTPNIESREKLNFLKTECKKYNNNFSPITSNFLESLFDSKRIKFLQKIIEEFELLLMKERKEIKCVVYTAKEINNNEKQKIQESILFKLKNELKPLIEYKIDKSILGGLVLQIGNQVFDFSAKYKIEKIRSTLS”, the “soluble on expression in E. coli” value is reported as “not soluble”.
Then “MAHHHHHHMGFSLLHPLPSAIHAGSNSSRLAVQRNPCRRSTEWCHGGSSGKQKKQRHCRGSEAGRPSGLPPNPRAPPPHHHRSAEGPRRPARHRRRHRRCTEDRPSSKPPAAHPRCRWARSPRRLSEHLGRLPLLGRRILLGCSQVDILRWGAAAGINALRNGDGCPLAILVQ”, with “not soluble”.

Values taken from the DeepSol protein solubility set.
